What was measured:
[1] = target: T1, Recombinant Human DLL4 (R&D Systems Cat#1506-D4/CF) (human, UniProt Q9NR61 27-529); assay: 96-well plate ECL (MSD) assay, DLL4 coated on plate, Fab at 0.04 µM; ECL signal on DLL4 over signal on blank well
T1 construct: Bought recombinant protein; also called rHuman DLL4; delta-like protein 4

[2] = target: T2, Recombinant Human DLL4 (delta-like protein 4) (human, UniProt Q9NR61 27-524); assay: ECL (MSD) multispot binding assay, immobilized DLL4, 10 nM Fab, signal over blank
T2 construct: Bought recombinant protein (R&D Systems Cat#1506-D4/CF); also called rHuman DLL4; Delta-like 4

[3] = target: T2, Recombinant Human DLL4 (delta-like …); assay: ELISA on plate-coated DLL4, absorbance at 450 nm, signal minus noise

| Signal/Noise [1] | Signal/Blank [10 nM Fab] [2] | ELISA (Signal-Noise) [3] | Binder |
| --- | --- | --- | --- |
| 3.5 | – | – | Fab VH1-46_IGHD6-6*01_IGHJ1*01 S103A & L6_IGKJ1*01 (Fab, V domains shown, Heavy chain CDR3 alanine mutant of the parental Fab; Fab format as the parent (CH1 with His6/Flag tags, kappa CL)) VH: QVQLVQSGAEVKKPGASVKVSCKASGYTFTSYYMHWVRQAPGQGLEWMGIINPSGGSTSYAQKFQGRVTMTRDTSTSTVYMELSSLRSEDTAVYYCAREEYSASSAEYFQHWGQGTLVTVSS VL: not shown |
| – | 1080 | 0.4 | Fab VH1-46_IGHD6-6*01_IGHJ1*01 S102A/S103P/S104F/H111F S84T & L6_IGKJ1*01 (Fab, V domains shown, Tested as Fab expressed in E. coli; also called APFF S84T) VH: QVQLVQSGAEVKKPGASVKVSCKASGYTFTSYYMHWVRQAPGQGLEWMGIINPSGGSTSYAQKFQGRVTMTRDTSTSTVYMELTSLRSEDTAVYYCAREEYAPFSAEYFQFWGQGTLVTVSS VL: not shown |
| – | 448 | 0.29 | Fab VH1-46_IGHD6-6*01_IGHJ1*01 S102A/S103P/S104F/H111F S84K & L6_IGKJ1*01 (Fab, V domains shown, Tested as Fab expressed in E. coli; also called APFF S84K) VH: QVQLVQSGAEVKKPGASVKVSCKASGYTFTSYYMHWVRQAPGQGLEWMGIINPSGGSTSYAQKFQGRVTMTRDTSTSTVYMELKSLRSEDTAVYYCAREEYAPFSAEYFQFWGQGTLVTVSS VL: not shown |
| 2.4 | – | – | Fab VH1-46_IGHD6-6*01_IGHJ1*01 H111A & L6_IGKJ1*01 (Fab, V domains shown, Heavy chain CDR3 alanine mutant of the parental Fab; Fab format as the parent (CH1 with His6/Flag tags, kappa CL)) VH: QVQLVQSGAEVKKPGASVKVSCKASGYTFTSYYMHWVRQAPGQGLEWMGIINPSGGSTSYAQKFQGRVTMTRDTSTSTVYMELSSLRSEDTAVYYCAREEYSSSSAEYFQAWGQGTLVTVSS VL: not shown |
| – | 457 | 0.41 | Fab VH1-46_IGHD6-6*01_IGHJ1*01 S102A/S103P/S104F/H111F S84H & L6_IGKJ1*01 (Fab, V domains shown, Tested as Fab expressed in E. coli; also called APFF S84H) VH: QVQLVQSGAEVKKPGASVKVSCKASGYTFTSYYMHWVRQAPGQGLEWMGIINPSGGSTSYAQKFQGRVTMTRDTSTSTVYMELHSLRSEDTAVYYCAREEYAPFSAEYFQFWGQGTLVTVSS VL: not shown |
| – | 433 | 0.26 | Fab VH1-46_IGHD6-6*01_IGHJ1*01 S102A/S103P/S104F/H111F S84R & L6_IGKJ1*01 (Fab, V domains shown, Tested as Fab expressed in E. coli; also called APFF S84R) VH: QVQLVQSGAEVKKPGASVKVSCKASGYTFTSYYMHWVRQAPGQGLEWMGIINPSGGSTSYAQKFQGRVTMTRDTSTSTVYMELRSLRSEDTAVYYCAREEYAPFSAEYFQFWGQGTLVTVSS VL: not shown |
| 0.8 | – | – | Fab VH1-46_IGHD6-6*01_IGHJ1*01 S105A & L6_IGKJ1*01 (Fab, V domains shown, Heavy chain CDR3 alanine mutant of the parental Fab; Fab format as the parent (CH1 with His6/Flag tags, kappa CL)) VH: QVQLVQSGAEVKKPGASVKVSCKASGYTFTSYYMHWVRQAPGQGLEWMGIINPSGGSTSYAQKFQGRVTMTRDTSTSTVYMELSSLRSEDTAVYYCAREEYSSSAAEYFQHWGQGTLVTVSS VL: not shown |
| 1.3 | – | – | Fab VH1-46_IGHD6-6*01_IGHJ1*01 S104A & L6_IGKJ1*01 (Fab, V domains shown, Heavy chain CDR3 alanine mutant of the parental Fab; Fab format as the parent (CH1 with His6/Flag tags, kappa CL)) VH: QVQLVQSGAEVKKPGASVKVSCKASGYTFTSYYMHWVRQAPGQGLEWMGIINPSGGSTSYAQKFQGRVTMTRDTSTSTVYMELSSLRSEDTAVYYCAREEYSSASAEYFQHWGQGTLVTVSS VL: not shown |
| – | 413 | 0.39 | Fab VH1-46_IGHD6-6*01_IGHJ1*01 S102A/S103P/S104F/H111F S84Q & L6_IGKJ1*01 (Fab, V domains shown, Tested as Fab expressed in E. coli; also called APFF S84Q) VH: QVQLVQSGAEVKKPGASVKVSCKASGYTFTSYYMHWVRQAPGQGLEWMGIINPSGGSTSYAQKFQGRVTMTRDTSTSTVYMELQSLRSEDTAVYYCAREEYAPFSAEYFQFWGQGTLVTVSS VL: not shown |
| – | 497 | 0.47 | Fab VH1-46_IGHD6-6*01_IGHJ1*01 S102A/S103P/S104F/H111F S84N & L6_IGKJ1*01 (Fab, V domains shown, Tested as Fab expressed in E. coli; also called APFF S84N) VH: QVQLVQSGAEVKKPGASVKVSCKASGYTFTSYYMHWVRQAPGQGLEWMGIINPSGGSTSYAQKFQGRVTMTRDTSTSTVYMELNSLRSEDTAVYYCAREEYAPFSAEYFQFWGQGTLVTVSS VL: not shown |

— patent US20120316071A1 (published 2012)
